Experimental findings from patent US20250163410 are described below.

The test system of the data set is VchCAST TnsB transposase (Tn6677; assayed with TnsA-TnsC and TniQ-Cascade) (Vibrio cholerae). Briefly: cell_activity. The note with it: T-RL; for binding signal: no IPTG.

“ACATTTGTTGATACAACCATAAAATCATAATTACACCCATAAATTGATAATTATCACACCCATAAATTGATATTGCCTCTGATCATAGTCAGACCAACATTGCTACGACCCGTATTCGCACCGACAC (double strand) [Right end variant 1010]”: the binding signal (log2 fold vs WT) (second replicate -1.5090) was -1.91.

“ACATTTGTTGATACAACCATAAAATGATAATTACACCCATAAATTGATAATTATCACACCCATAAATTGATATTGCCTCTGATCAAATTGTGAGCGGATAACAATTTAGTCAGACCAGCACCGACAC (double strand) [Right end hyperactive 2695]” displayed a binding signal of 1.82 fold vs WT.

On to “TGTGGATACAACCATAAAACGATAATTACACCCATAAATGGATCATTATCACACCCA (double strand) [Right end ORF1b]”, for which the binding signal (log2 fold vs WT) (second replicate) is -2.03.

As for “TGTTGATACAACCATTAAATGATAATTCCACCCATAATTTGATAATTATCACACCCA (double strand) [Right end ORF3b]”, the binding signal (log2 fold vs WT) (second replicate -0.65) is -0.84.

On to “ACATTTGTTGATACAACCATAAAATGATAATAACACCCATAAATTGATAATTATCACACCCATAAATTGATATTGCCTCTGATCATAGTCAGACCAACATTGCTACGACCCGTATTCGCACCGACAC (double strand) [Right end variant 990]”, for which, where the note is “second replicate 1.0127”, the binding signal (log2 fold vs WT) came to 0.854.

Turning to “ACATTTGTTGATACAACCATAATATGATAATTACACCCATAAATTGATAATTATCACACCCATAAATTGATATTGCCTCTGATCATAGTCAGACCAACATTGCTACGACCCGTATTCGCACCGACAC (double strand) [Right end variant 1017]”, the binding signal (log2 fold vs WT) (second replicate 1.4722) was 1.36.

Sequence “ACATTTGTTGATACAACCATAAAATGATAATTACACCCATAAATTGATAATTATCACACCCATAAATTGATATTGCCTCTCGCGAGAGGCCGGCAGCCGTCTGGCGTCGGGTGGCGGGCACCGACAC (double strand) [Right end hyperactive 2697]” returned a binding signal of 2.03 fold vs WT.

“ACATTTGTTGATACAACCATAAAATGATAATTACACCCATAAATTGATAATTATCACACCCATAAATTGATATTGCCTCTGATCAGGAATTGTGAGCGGATAACAATTTAGTCAGACGCACCGACAC (double strand) [Right end hyperactive 2693]” registered a binding signal of 2.05 fold vs WT.

In turn, “TTTTGTGTTGAAACAACCATAAAGTGATAACAACGAATCAATTAAAATCATAGGCTTAATCGAAAAACAACCATATATTGATATCTCATAAAACAACCATAAGTTGATATTTTGGTGAAAAGGATATTCCAACCTTCATAGTTTAGTAAGAA (double strand) [Left end hyperactive 4669]” had a binding signal of 1.69 fold vs WT.

As to “ACATTTGTTGATACAACCATAAAATGATAATTACACCCATAAATTGATAATTATCACACCCATAAATTGATATTGCCTCTGATCATAAATATATAAATTAATTATTAAATTAGTCAGGCACCGACAC (double strand) [Right end hyperactive 2692]”, the binding signal was 2.24 fold vs WT.
